Data set [1] deals with leukocytes in peripheral blood. As to the kind of experiment: Number of leukocytes in peripheral blood after GM-CSF blockade by neutralizing antibody. The class given is in vivo. Also noted: Lymphocytes in peripheral blood: unit not given here. The settings on record: KLF6fl/fl;LysM Cre mice, CaCl2 + AngII. On the procedure:
(§1) To induce aortic dissection/intramural hematoma, peri-aortic application of CaCl2 was done to the abdominal aorta, followed by two-week infusion of AngII (2000 ng kg−1 min−1) (40). In detail, mice were anesthetized and underwent laparotomy at 10- to 13-weeks of age. The abdominal aorta between the renal arteries and bifurcation of the iliac arteries was isolated from the surrounding retroperitoneal structure, and 0.5 M CaCl2 was applied to the external surface of the infrarenal aorta. NaCl (0.9%) was substituted for CaCl2 in sham control mice. The aorta was rinsed with 0.9% sterile saline after 15 min and the incision was closed.
(§2) Wild-type mice were injected intraperitoneally with 110 mg kg−1 of clodronate liposomes or equal volume of PBS liposomes 2 days prior and 7 days after induction of aortic dissection. Neutralizing antibody against GM-CSF (300 μg, R&D systems) or control anti-rat IgG antibody (Equitech Bio) was administered every other day by intraperitoneal injection. Recombinant murine GM-CSF (10, 50, 100 μg kg−1 day−1, PeproTech) was administered for two weeks or four weeks after induction of aortic dissection.
Aortas were minced into 3- to 4-mm pieces and placed in 1 ml digestion solution containing collagenase type II (1.25 mg ml−1, Worthington) and porcine pancreatic elastase (50 μg ml−1, Worthington) in base solution of Accumax (Innovative Cell Technologies). Aortic tissue was digested at room temperature with agitation for 1 h. After digestion, cells were washed in FACS buffer (5% FCS in PBS) at 2000 rpm for 5 min. Aortic macrophages were isolated using CD11b microbeads according to the manufacturer's instructions (Miltenyi Biotec). Spleen was homogenized and passed through a cell strainer to obtain single-cell suspensions. Bone marrow-derived cells were taken from the femur and tibia of 5- to 6-week-old mice. Blood was collected in heparin-coated vials and then 1.2% dextran was added for 45 min at room temperature. Counting of peripheral leukocytes was done by automated hematology analyzer (XT-2000i, Sysmex). […]

A short description of data set [2]: Plasma GM-CSF concentration (ELISA) after recombinant GM-CSF infusion. The settings on record: wild-type mice. Format: in vivo. On the procedure:
as §2
Plasma levels of IL-6, MCP-1 and GM-CSF in mice or in humans with or without aortic dissection/intramural hematoma were assayed with commercially available quantikine ELISA kits (R&D systems) according to the manufacturer's instructions. Sera of healthy volunteers and of patients with aortic aneurysm, coronary artery disease or with aortic dissection were obtained with informed consent under a protocol approved by the University of Tokyo hospital research ethics committee.
A general note: An ELISA detects its analyte on a solid surface through an enzyme-linked reagent.

Data set [3] has as its system wild-type mice. Description: Murine aortic dissection/intramural hematoma model with recombinant GM-CSF administration. The class given is in vivo. The protocol:
as §1, §2
Aortas from mice were embedded in paraffin then 5-μm-thick serial sections were prepared for Elastic Von Gienson (EVG) and hematoxylin/eosin (HE) staining. Digital images of EVG-stained aortas with reference scale were used for absolute measurement of diameter. Human aortic tissue was obtained from patients undergoing surgical aortic repair with informed consent under a protocol approved by the University of Tokyo hospital research ethics committee. Paraffin-embedded sections were taken from the aorta for EVG staining and immunohistochemistry. […]

The test system of data set [4] is leukocytes in peripheral blood. Description: Number of leukocytes in peripheral blood after GM-CSF administration. Format: in vivo, mice. Details: Lymphocytes in peripheral blood: unit not given here. The note with it: for Lymphocytes in peripheral blood / Monocytes in peripheral blood / Neutrophils in peripheral blood: wild type mice. The protocol:
as §1, §2
Aortas were minced into 3- to 4-mm pieces and placed in 1 ml digestion solution containing collagenase type II (1.25 mg ml−1, Worthington) and porcine pancreatic elastase (50 μg ml−1, Worthington) in base solution of Accumax (Innovative Cell Technologies). Aortic tissue was digested at room temperature with agitation for 1 h. After digestion, cells were washed in FACS buffer (5% FCS in PBS) at 2000 rpm for 5 min. Aortic macrophages were isolated using CD11b microbeads according to the manufacturer's instructions (Miltenyi Biotec). Spleen was homogenized and passed through a cell strainer to obtain single-cell suspensions. Bone marrow-derived cells were taken from the femur and tibia of 5- to 6-week-old mice. Blood was collected in heparin-coated vials and then 1.2% dextran was added for 45 min at room temperature. Counting of peripheral leukocytes was done by automated hematology analyzer (XT-2000i, Sysmex). Neutrophils were isolated from bone marrow using a neurophil isolation kit according to the manufacturer's instructions (Miltenyi Biotec). From single-cell suspensions of spleen, bone marrow and blood, erythrocytes were lysed using ACK lysis buffer for 5, 3 and 2 min on ice, respectively. Cells were centrifuged at 2000 rpm for 5 min to remove the ACK lysis buffer, then the single-cell suspensions were resuspended and washed in FACS buffer, followed by centrifugation at 2000 rpm for 5 min.

B1: GM-CSF: Recombinant murine GM-CSF (PeproTech), granulocyte macrophage colony-stimulating factor (protein, UniProt P01587 18-141, looked up)
Granulocyte-macrophage …: APTRSPITVTRPWKHVEAIKEALNLLDDMPVTLNEEVEVVSNEFSFKKLTCVQTRLKIFEQGLRGNFTKLKGALNMTASYYQTYCPPTPETDCETQVTTYADFIDSLKTFLTDIPFECKKPGQK
B1: the “Lymphocytes in peripheral blood” value in data set [1] stood at 1843.3 ± 311.1; in data set [4] (CaCl2 + AngII, 5 days), 1803.3 ± 124.0; in data set [4] (CaCl2 + AngII, 14 days) it was 1667.2 ± 371.3; in data set [4] (Sham, 5 days), 3150.0 ± 234.5; in data set [4] (Sham, 14 days), 3052.0 ± 420.3. In addition, the Monocytes in peripheral blood turned out to be 82.5 ± 12.5 cells/µL in data set [1]; 387 ± 112 cells/µL in data set [4] (CaCl2 + AngII, 5 days); 310 ± 45.9 cells/µL in data set [4] (CaCl2 + AngII, 14 days); 353 ± 103 cells/µL in data set [4] (Sham, 5 days); 295 ± 66.2 cells/µL in data set [4] (Sham, 14 days). For the same molecule, the Neutrophils in peripheral blood in data set [1] is 786 ± 118 cells/µL; in data set [4] (CaCl2 + AngII, 5 days), 1690 ± 147 cells/µL; in data set [4] (CaCl2 + AngII, 14 days), 1050 ± 259 cells/µL; in data set [4] (Sham, 5 days), 2540 ± 454 cells/µL; in data set [4] (Sham, 14 days), 976 ± 117 cells/µL. Further, the “increased circulating levels of GM-CSF” value in data set [2] (GM-CSF alone, 2 weeks infusion) is given as “at least 180.9 fold”. In addition, in data set [2] (combination of GM-CSF with CaCl2 + AngII compared to each alone), the “circulating levels of GM-CSF” value is reported as “markedly elevated”. For the same molecule, the aortic dissection/intramural hematoma result was “caused” in data set [3] (wild-type mice subjected to aortic inflammation (CaCl2+AngII) plus GM-CSF) and “did not develop” in data set [3] (wild-type mice, administration of GM-CSF alone). Moreover, the death of mice entry in data set [3] (wild-type mice, GM-CSF with CaCl2+AngII) is listed as “died from aortic rupture”. Further, the “number of neutrophils in peripheral blood” value in data set [4] (14 days of GM-CSF administration) is listed as “no difference”; in data set [4] (GM-CSF administration, early phase), “markedly increased”. Also, the “number of circulating lymphocytes” value in data set [4] (GM-CSF administration, early phase (5 days) or developed phase (14 days)) was “did not change”.

Source of the values: patent publication US10933119B2, “Aortopathy” (University of Leicester, priority 2015, dated 2021).
